Km and kcat data for 2 proteins are collected here from article PMC10509167, “Identification and characterization of endo-α-, exo-α-, and exo-β-D-arabinofuranosidases degrading lipoarabinomannan and arabinogalactan of mycobacteria” (Nature Communications, 2023).

Substrate in data set [1]: O=[N+]([O-])c1ccc(O[C@@H]2O[C@H](CO)[C@@H](O)[C@@H]2O)cc1
The data set is described as follows: purified protein. It is filed as biochemical, Microbacterium arabinogalactanolyticum. The following applies: 37 °C, 50 mM sodium phosphate pH 6.0.

Substrate in data set [2]: O=[N+]([O-])c1ccc(O[C@H]2O[C@H](CO)[C@@H](O)[C@@H]2O)cc1
Put plainly: purified protein. The conditions noted are these: 37 °C, 50 mM sodium acetate pH 5.5. The format is biochemical, Microbacterium arabinogalactanolyticum.

B1: ExoMA2 (MIAR_33170) (Microbacterium arabinogalactanolyticum) (protein)
chain: SRRARRIPHTAESVAFPLGGIGTGNVSLGARGELRDWEFENLPDKGRLNPRSFFAIHAAPQGGPSATRVLEARSSGRHDRDAGYGFDELAGLPRLDSAGLHGEYPVVDIDFTDATLPVTVSLHAFTPLVPLDADASGIPAAVLRYRVVNPGDAPVTVTVVGSMSHTAGRGAPGPDAPWGMRGTQSVRWRESDGIRGLDFDIDLDHDDPGYGTMSLTTTDSSTTVKPQWVTSYWPDGARLFWNDLADDGLLAPEARLTLEDKPRGLFAERDADPDAPALTEEQMLAKLPRVRTGSLGIVHTLAPGEERDFEFVLAWSFPNRRRGWHGHIIFDDALEDGAPDLRDELGPIVRNHYAVRWPDAWAAAAQLHRDLPALEGATDAFVEELYGGSLDPVLADAVGANIAALRSTTCFVLESPTPELGDGPVFAAWEGSFDHGGSCEGTCTHVWSYAQTAAWLFPGLERSARRAEYLLETDESGAQKFRGNRIFGAPRWFIGPAVDGQLGTFLRLHREWRFCGDDEFLRELWPAAARTLDYAAREWDHDGDGLLDGEMHNTYDIEFHGVEPLSNIIHLAALRAGVRMAGHLGDTARAQEWALRADHVAAAIEGVLWNGEYYRQVIDDVDAHRYQYGDGVLSDQLLGQFHAFLGGLGYLLPEAHVRSALDAIVQHNHRGDLRDHESTQRVYALNDEGGLLLASWPEGGRPALPFVYADEVWTGIEHQVAVSLLFAGRYDDALRIERTLRARYDGAHRSPWNEIECGNHYARSLASWGLLIGASGAQWDAGARTLSFDPVLPGDARFLFTTATGWGGVEIGDDVITLRLHGGALDLDELRLRGEVAGRGIHLDAGETRTLTLT
notes: dimer
Turning to B1, in data set [1], the Km worked out at 2730 µM and the kcat was 12.0 s⁻¹.

B2: ExoMA1 (MIAR_33200) (Microbacterium arabinogalactanolyticum) (protein)
chain: MPDLNSIAALRQVQTRSISPENFDGTAGGGGRATEGTGADCARDLGPGWKISPSVDIKAGETFELASIEGAGKITHIWITTHTDNWRTLILRAFWDGADEPAVEVPYGDFFCNGWGVFAQVNSQAIAANPHGGFNSYWPMPFRDGARLTIENTSVVDVRVYYQVTYEIGGDHSNDAYFHAQWRRSNPLEELTPHVILEGIEGEGHYVGTYIAWGVNSNGWWGEGEIKFYLDDDTDHPTICGTGTEDYFGGAWNFDIPGKGYTEFSTPYLGMPQVIRPDGLYVSQQRFGMYRWHLQDPIHFATGIPKVDIQALGWRSGWRYLPLRDDIASTAMFYLDRPTARRPKSPSADDMEVHLGTAPVPDLGATPPRV
notes: dodecamer
As for B2, in data set [2], the Km came to 2550 µM and the kcat was 44.4 s⁻¹.
